Biological target: the molecule itself
Assay: crystal structure

B1: E-2-(acetamidomethylene)succinate (E-2AMS) hydrolase (enzyme, Mesorhizobium loti MAFF303099, UniProt Q988D4 1-278, looked up)
chain: MDMAADIASDHFISRRVDIGRITLNVREKGSGPLMLFFHGITSNSAVFEPLMIRLSDRFTTIAVDQRGHGLSDKPETGYEANDYADDIAGLIRTLARGHAILVGHSLGARNSVTAAAKYPDLVRSVVAIDFTPYIETEALDALEARVNAGSQLFEDIKAVEAYLAGRYPNIPADAIRIRAESGYQPVDGGLRPLASSAAMAQTARGLRSDLVPAYRDVTKPVLIVRGESSKLVSAAALAKTSRLRPDLPVVVVPGADHYVNEVSPEITLKAITNFIDA
- stoichiometry N: 2
